# Test results published in patent publication US20080089931.
# Target: EphA2 receptor tyrosine kinase (UniProt P29317)
# UniProt P29317, sequence (P29317 whole entry, looked up): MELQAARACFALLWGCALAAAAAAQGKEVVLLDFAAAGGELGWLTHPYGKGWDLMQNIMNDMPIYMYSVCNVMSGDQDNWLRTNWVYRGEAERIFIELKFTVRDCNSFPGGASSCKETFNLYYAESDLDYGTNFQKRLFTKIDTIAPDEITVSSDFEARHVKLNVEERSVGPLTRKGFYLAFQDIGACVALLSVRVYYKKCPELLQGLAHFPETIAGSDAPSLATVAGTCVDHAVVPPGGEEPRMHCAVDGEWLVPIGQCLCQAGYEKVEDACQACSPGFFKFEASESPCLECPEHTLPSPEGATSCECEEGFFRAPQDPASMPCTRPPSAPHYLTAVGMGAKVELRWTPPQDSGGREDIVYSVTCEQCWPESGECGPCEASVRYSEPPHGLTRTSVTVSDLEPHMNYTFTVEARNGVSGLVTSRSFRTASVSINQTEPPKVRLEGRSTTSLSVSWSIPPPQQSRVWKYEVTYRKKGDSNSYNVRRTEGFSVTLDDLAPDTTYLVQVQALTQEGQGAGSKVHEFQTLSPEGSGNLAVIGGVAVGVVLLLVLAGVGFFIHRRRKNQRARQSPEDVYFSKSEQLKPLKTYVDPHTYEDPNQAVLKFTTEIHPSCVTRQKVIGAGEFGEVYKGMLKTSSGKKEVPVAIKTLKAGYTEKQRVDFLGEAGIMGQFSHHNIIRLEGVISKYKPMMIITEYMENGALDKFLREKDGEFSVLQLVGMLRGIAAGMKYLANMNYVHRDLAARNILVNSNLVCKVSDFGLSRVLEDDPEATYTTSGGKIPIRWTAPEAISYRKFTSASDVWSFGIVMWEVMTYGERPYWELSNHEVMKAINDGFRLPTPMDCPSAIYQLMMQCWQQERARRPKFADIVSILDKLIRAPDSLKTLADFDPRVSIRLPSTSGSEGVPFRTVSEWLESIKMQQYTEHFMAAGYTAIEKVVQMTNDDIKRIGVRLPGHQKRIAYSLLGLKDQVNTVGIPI
substance,measurement,value
purified LMW-PTP protein,dephosphorylation of immunoprecipitated EphA2 (phosphotyrosine Western blot),the LMW-PTP dephosphorylated EphA2 in an enzyme concentration-dependent and a time-dependent manner
